# Measured values reported in the DeepSol protein solubility set.
# Assay: soluble on expression in E. coli; label from the status in PepcDB or PDB records
row,Sequence,soluble on expression in E. coli
1,MSLIIKGALVWSGKEFVQKDLFVENGEFVEKSSEPVIDAKGYFLVPGFVDSHAHVVGTGFSKLSVQFNDWDELFERDLTSEVVVGRGWFEEPDGSVVERLDRIEAPVFLIRRCGHKAFLNKKAMEVLGVEERYLVENLEKIYEYVFKEKIAEFYRVGEEEFLKHGVTFVQSDDLYGVSVERLLSIIKHSRIRLFEKLKPKDLKPEHFGDLNKRVHVKGVKVFMDGSLGAKTALISGEYDDGTQGVQLLTEEKLEELARFCDEHDLILNVHAIGDSAVSLVLDVLERHRGHRIIHAQFVQEKDLQRVKNTTFSVQPHFFFEDQPLLKKVKVNALHYPFYRMFKAGVSISFSSDSPVSPCDPKYIAEHALKMGFSREETFYLMTEAGASQVGIKTGKIEAGYRADFCLYERNPLLFEDDPIAVFVEGEKIYEKNGSSHEGHHHHHH,soluble
2,KEKFNYYIGANIAADKNEVTKITLGGQNLMISGYSAHGAGGRGINMFAEGHPMSYFNLIETDGLFRSAEEIANYKNKDGELIQPAAQVGDVRYKDWNGDGKINTDDQHDVGSPFPDFTFGIRLGGEWNNFDFNLFFDGMVGNKIYNYPRYRLESGNFNGNMSTVLANSWRPDNQNTDIPRFSKTDGADNKWAYTDRWLEDGSYIRLKTLDIGYTLPKVLTKKIKLENVRIYTSMENLFTLTKYSGYTPDLGESSVAGVAYNVFSRGIDQGRYPLPRTISFGIQVNL,not soluble
3,MGSDKIHHHHHHMKIAIITFFDNGNYGSELQTLAMNDYLNAKGHVTVFCKVKSSNKIIRAIELLYDKVLLKWYKITDKEKRQYLTDRAKNLSSQRNIPPKLRQYIHSFVNSHISFGCISRLLLFRKERFDAYICGSDQIWSALKMPLLPLNFLYGIDKKKKIAYAPSIGLDNPPYYYIREVEKYVKDFIYLSVREEDAKNVLKKQYGIEAMQVLDPTLLQGKGFWDSLLAIESKQVPTKPYVFCYFLGKLNEDIVTCINRIANGKCVMVLPYEEDCDLIKNGKYELADPLDFVNLIKHADYVLTDSFHGSIFSILYDKQFVVTKRTHVRRVSQTSRITSLLKIFNLQSQYCSGVDEIINALQNNIDYSFTHIQLEEEQRKSRLFLDGALNEIEKNIKS,not soluble
4,MSLRPTMTDIAKLTGVSQSTVSLVLNNATGAKFSETTRNKVLKAAHDLGYRLSLREPVSASADERNLIVYLADEISTSPHPVVNIDGARDAAYASGKMLAVYSTHGNADIEKQVLDTTLSNPHVFGVIYATVYTRKVTPPAALSQVPTVLLNCYTGEGGFSSVVPAEVAGGHLATDYLLQSGHRRIGYINGEPWQDASKDRLKGYRTALATADLPFAQEMVRDGDWSSGLGFELTLSLMRESNPPTAIFCANDLTAIGAIEALKQLGLRVPEDVSVLGYDDQEIARHTHPPLSTVVLPNYELGRWAVETLLQEEHNRAAGAPVRHRMVKLDGPLVERGSVRVITEAKEGHHHHHH,soluble
5,KDIGSLTLALEQLKEKLRLKGYFDEENKLPKPHFPKRVAVITSQNSAAWADMKKIASKRWPMCELVCINTLMQGEGCVQSVVESIVYADSFHDTK,not soluble
6,MVTFREMDISDYNEVIALWATTENVSLRDADSRPNIEAYLKRNQGLSFVAVSDSLVIGAVLVGTDGRRGYVQHLAVSSDFRGQGIGKSLIQKATDALSRIGISKTHLFVLIENVVAQDFYTKLDWYPRDEIRMFSYNSSSNPEV,not soluble
7,MGHHHHHHSHMSAFASSDRAEKSGIALEAQQKIYEKYDKNLAGEILQWVQNVTGQSFDTQGDADNLVKVFQDGSLLCTLANSLKPGSVKKVNTSAMAFKKMENISFFLKFAEEYVQKSELFQTVDLYEGQDPNAVLICLASLARKSEKNFGRSGLGPKEAQGDRREWTDEQLKAGHNVIGLQMGSNKGATASGLNMGNTRHM,soluble
8,MLMVVPLSEMGPGDKGIVVNILGGHNARQKLVSMGLTPGATIQVLESHPMGPIIISVGGVRFAIGKGLAGRVMVRKL,soluble
9,MLTYETWEENETKGALSVLSWAYKEYKSEIVYACSFGVEGMVLLDLINQVNPSAKVVFLDTNVHFQETYELIQKVRERFPSLNIIEKQPKLTLDEQDKLHGDKLWESNPNLCCKIRKILPLEESLANEKAWISGLRREQSETRKHTKFINQDHRFQSIKVCPLIHWTWKEVWRYVYKHSLPYNSLHDIGYPSIGCEKCTLPVGEGGDSRDGRWAGKVKTECGLHYQ,not soluble
10,MTIQQAMHQMPGKPGRDAIAEGETPRKASSDEAGCPRNDSTPTGSGLLQAALTRDNLQLAFKQVRANKGAAGVDGLGIVETAEHLKTAWPGIRAQLLAGTYRPDPVRRVLIPKPGGGERKLGIPTVTDRLIQQALLQVLQPLLDPDFSNHSYGFRPERSAHQAVLAAQQYIHSGRQIVVDVDLEQFFDCVEHDVLIARLGRKVKDRDVLRLIRAYLNSGALIEGMVMTSTRGTPQGGPLSPLLANVVLDEVDKELERRGHCFVRYADDANVYVRSPKAGQRVMALLRRLYGRLGLRVNESKSAVASAFGRKFLGFSFWQSPKGEVKRRVALKALQVFKHRIRGLTPRSGGRSLPQVVENLRPYLLGWKAYFGLSQAPGLWKSLDGWIRRRLRAIQLKQWKTGKTTYRELRKLGANSDLAAAIASDSHRTWHNSAGLIHGVLTVAWFDRLGLPRLYLEHHHHHH,not soluble
11,MGSDKIHHHHHHMASIALNNLTYTYPQASTPILDRVNLTLPRQSFILLTGPSGTGKSTLLKLIAGLLPLTPDDGTITFDGQALTASTANQRAQHVAMMFQNPNQQFAMDTVENELIFALENLQVPRDQIPARLLSALDFVGIRNLQSRLLNHLSGGEKQKVALAIIVAMDSDVILLDEPFASVDPTARAVLLDRLVELRNQHGKTIILADHDLSGYEQLVDQVVQIKDQHLQLIDRTTWSELFSAFTEQPQRSWSAPQRVERPCFQLDHVTLQAGDRQLLVPTTRQLLAQHNTLITGPNGSGKSTLFEALVRLHPYTGEIRYEGTPIDKLKRKRYARHVALLFQDAETQFLNITVAEELAQSKRYAYGDYFTADRIQTALVQLNLSGRDEQVIYTLSEGQKKKLQILLMLIMQSPVLLMDEPLKGLDLHSINALVALLQTTQAATKQTLIIISHQLTGLMPLIDYQLHFENHHLDWVVRS,not soluble
12,MAHHHHHHMENINRVNKYDNPNEAIKNMVDKIINKKEMMKYFLDAQDIFEYHDVGKKGEVDITLFPKMARQLKQVYDIRDINNFKKEMKIKKIYKMDLQLFFTLLKRKILYSINNSNNNENDNSSFRQHYDILDMKKKQLLDVDELRTYLGLMGDKINPDDFNILLRYNLINNHRINKDDIVLDENKEIKNISFNAYVDMLTCYKYI,not soluble
13,SANSGCKDVTGPDEESFLYFAYGSNLLTERIHLRNPSAAFFCVARLQDFKLDFGNSQGKTSQTWHGGIATIFQSPGDEVWGVVWKMNKSNLNSLDEQEGVKSGMYVVIEVKVATQEGKEITCRSYLMTNYESAPPSPQYKKIICMGAKENGLPLEYQEKLKAIEPNDYTGKVSEEIEDIIKKGETQTL,soluble
14,MTKVQDITRESWILNTFPEWGTWLNEEIEQEVVPADNFAMWWLGNCGIWIKTPGGANVVMDLWSNRGKATKQVKDMVRGHQMANMAGARKLQPNLRAQPMVIDPFMINELDYYLVSHYHSDHIDINTAAAIINNPKLNHVKFVGPYECGEVWKNWGVPKDRIMILKPGDSFEFKDIKITAVESFDRTCLVTLPIQGADAQDGDLAGLAITDDDMARKAVNYIFETPGGTIYHGADSHFSNYFAKHGRDYDIDVVLNNYGENPIGIQDKMTSVDLLRMAENLRAKVVIPVHYDIWSNFMASTDEILELWKMRKERLQYDFHPFIWEVGGKYTYPQDQNRIEYHHPRGFDDCFLEDSNIQFKALL,not soluble
15,KKDFTWKTNLTFSLNRNKIVDLYGDKKDDLANRWFIGQPMKVIYDLEKVGIWQTEDKELAAKYGQVPGHIRVADLDENYVIDERDYKVLGSPSPDWTAGMTNTFTYKNWDLSFYMYARIGGTYNDDFTYMFTAWDNEHWNKLNVKYWTPENHSNEYQQIGAQSYHTQVLGKISGSFLKIQNITLGYTLPENWMKKMKMKNARAYINVQNPFTFTDYLGPDPETIGEDVYKSLSLYPMTFTFGVNLTF,not soluble
16,MDISVIDATKVNTETGLHIGESNAPVKMIEFINVRCPYCRKWFEESEELLAQSVKSGKVERIIKLFDKEKESLQRGNVMHHYIDYSAPEQALSALHKMFATQDEWGNLTLEEVATYAEKNLGLKEQKDATLVSAVIAEANAAHIQFVPTIIIGEYIFDESVTEEELRGYIEK,soluble
17,MSLKRIAIILLTLTSILFVQHVPEGLAKASNELSLEEKYEQRLTLYEKMEAITNVPWYYLAAVDTYERGLRRAQKDRPAEEGLIAIYFSPQQWVGPLNPDLEDTNPLSISMFNGVGLDGNGDGVADRNNDEDVLYTFARYLESYGFKEEDFRIALWEYYQREQSVNIIYGHANVYKTFKTLDLDDHTFPLPLHHNYSYRSTWGDRRGWGGRRIHEGTDIFANYNVPVMATAYGIVEIKGWNKYGGWRIGVRDLDNVYHYYAHLSGFEKGVEKGTVVAPGDVIGYVGSSGYGKPGTQGKFPPHLHYGMYRDNGYTEWSFDPYPSLKSWERKAYQERKKKKEGHHHHHH,soluble
18,MNVYRNQLIQLLPEITELKNLTTLDLSLNKLTQLPPEIGELNNLKTLYSSSNQLTQLPLEITKLKNLTELYLSSNLMIRLPLEITELKNLTTLNVYRNQLIQLPSKITELKNLKKLDLSRNQLAQLPPEIAELKNLTTLDLSRNQLAQLPPEIAELKNLTTLDLFENPLISLEHHHHHH,not soluble
19,SHMPASVQLHTAVEMHHWCIPFSVDGQPAPSLRWLFNGSVLNETSFIFTEFLEPAANETVRHGCLRLNQPTHVNNGNYTLLAANPFGQASASIMAAFMDNPFEFNPEDPIPDTNSTSGDPVEKKDE,soluble
20,MGSDKIHHHHHHMLTLLSYHQKVLDHFKHQTKTWDFFTASQNKDEQLNQYKTELLKNTYKFDPEKDTSIYEKVAKSKQVLGLDINVYVYQAQYSDELNASVGFVNNEAHIVFSGQIIQLLDDDELLTVIAHELSHIKLYTMQGGDPEVAARIITAISNNYDSESSYMETARLFRLYTEIFCDRGAYEVQGSTGPVITSLVKTATGLKQVNAESYIKQAEEIFSADQQLKAASISHPENFIRARAIHLWHEKKEAAEEEIIRMIEGVTDIDALDIFKQKELAACTRQFLQLYLKPNWFRSTLVVSQAKQYFVDFSWDDKIILEETFITRMEKAHESVKNYFSYVLLDFALLDSTLEEIPFGWAFQFAEDIDIKETFDAVVKKELNLSDKKLQQHKQKTLSAFYNVKEGDGEQIYEG,not soluble
21,MAELRQVQVDIQQPGGIRELVQREAGDQVRGQDSFPGPDIRRVYQEVRYERRGKLICLIMAGGLGSRMNRPEKALIEVHGEALVDRTIRCMNGICSDIYALIDPSMERLQGKLRSVNVKVLAKRRGGYIEDLNHAMHSIGKFPILVIPGDIFIFNCSAFLDAVRRGMLAEANVVSFTDAGQYTGISIFNAQSGSYQDIDLNGSVANINTPEDLRAVIERLRTSEKLDGSAGHADG,not soluble
22,MRYQKLEIQEANWQWKYLLKKHREGENITKHTEQSLIELKVQFLTTLQHSPAEIEQWIKAEMTAEQRKRMRQSIRAKRKRFFNAEKLTTKKKSIDLDYASWLRLSKYSKTHAMTLSETINHLIDERENQHLYSEQMAKMKASLKDLLK,not soluble
23,MKKIAIFAKVHDPRCQGVASELIAWLEARGLIPLVEAHLARHLGGRQGIVPEDIPVLADMAVVLGGDGTLISAARLIGSRQIPILGVNLGSLGFLTEITLDELYPVLESCLSGDFQVTERMMLTVSVERNGEEICSHRVLNDVVINKGALARIIDMETEVSGIRLTTYKADGLIISTPTGSTGYSLSANGPIVHPSLECITITPICPHTLTNRPIVLESSSGVTVWLRSKDEDVYLTLDGQVGMELKCGDAVHVRRAAHRTRLVMSRSRNYFEVLRTKLKWGERAAALEHHHHHH,soluble
